Reference: patent publication US11738096B2, “Method of detecting diseased or damaged tissue with a pH-triggered polypeptide fluorophore composition” (University of Rhode Island Board of Trustees, priority 2016, dated 2023)
Where a SMILES comes first, the peptide text is derived from it. The star is where a group is joined. X1 = CC1(C)C(/C=C/C=C/C=C/C=C2/N(CCCCCC(=O)NCCN3C(=O)CC(*)C3=O)c3ccc4ccccc4c3C2(C)C)=[N+](CCCCS(=O)(=O)[O-])c2ccc3ccccc3c21

Key:
[1] = NIR fluorescence imaging of blood vessels and blood flow (ear, leg, blood samples) in mice; assay type: in vivo, mouse; conditions: blood collected 5-120 min after IV injection
Method: Adult female nude mice (Envigo), 20 g in body mass were used in the study. Fluorescent constructs were given as a single tail vein injection in amounts of 100 μL of 40 μM in PBS. Imaging of mouse ear and leg was performed at 5, 30, 60, 90 and 120 min after construct administration. At 5, 30, 60, 90 and 120 min after construct administration 5 μL of blood was withdrawn from tail (and mixed with 5 μL of anticoagulating solution to preserve blood) while animal was under anesthesia. Mice were euthanized immediately after last imaging point (120 min). Blood collected from all animals was deposited on the glass slide, dried and imaged. Imaging was performed using Novadaq clinical imaging instrument. Autofluorescence was established by imaging mouse with no injection of fluorescent constructs (the level of autofluorescence signal was insignificant compared to the signal after the constructs administration).

[2] = tested on: 4T1 murine mammary carcinoma; assay: Tumor targeting in mice bearing 4T1 tumors; assay type: in vivo, mouse; conditions: 20 μM, IV, 16 h
Method: Adult female nude mice and female BALB/cAnNHsd mice (Envigo), 20-25 g in body mass were used in the study. Mouse mammary cancer 4T1 cells were subcutaneously implanted in the right flank (8×10^5 cells/0.1 mL/flank) of adult female BALB/cAnNHsd mice. Rat bladder cancer AY27 cells were subcutaneously implanted in the right flank (8×10^5 cells/0.1 mL/flank) of adult female nude mice. When tumors reached approximately 5-6 mm in diameter, single tail vein injection or single intraperitoneal injection of fluorophore-pHLIP® solutions in PBS were performed. Fluorescent constructs were used in amounts of 100 μL of 40 μM, or 100 μL of 20 μM, or 100 μL of 10 μM, or 100 μL of 5 μM. Imaging of mouse was performed at 16 hours after constructs administration. Skin was removed from the tumor site just before imaging while animal was under gas anesthesia, and mice were euthanized immediately after imaging. Tumor, kidney and liver were harvested, imaged and used for histopathological analysis. Imaging was performed using Stryker clinical imaging instrument. Autofluorescence was established by imaging mouse with no injection of fluorescent constructs (the level of autofluorescence signal was insignificant compared to the signal after the constructs administration).

[3] = tested on: urothelial carcinoma in human bladder specimens; assay: Ex vivo NIR fluorescence imaging of radical cystectomy bladder specimens, 60 min instillation
Method: 22 urothelial carcinoma patients that were scheduled for radical cystectomy were selected over a twelve month period. After radical cystectomy, bladder specimens were immediately removed and irrigated 3 times for 5 min via catheter with non-buffered saline and instilled and incubated with 80 ml of 8 μM or 32.8 μg/ml (unless otherwise is stated, see notes to Table 8) of ICG-Var3 construct or ICG-Cys in PBS pH 7.4 containing 10 mM D-glucose for 60 minutes. Then, the unbound constructs were removed by rinsing with 80 ml of saline solution 3-5 times, the bladder was irrigated thoroughly with buffered saline and opened using a Y incision on the anterior wall. Using a da Vinci Si near-infrared fluorescence imaging system (Firefly^R), ex vivo fluorescent and white light imaging of the entire bladder and its parts was performed. The fluorescent spots were marked and standard pathological analysis was carried out to explore the correlation between appearance of fluorescent signal and cancer lesions.
The specimen was sectioned and submitted after 24 hour fixation in 10% phosphate-buffered formalin according to the standard institutional grossing manual, with emphasis on the marked areas of the bladder. The sections were processed for routine histology into paraffin-embedded blocks. […]
Statistical parameters were calculated according to the following equations: […]

SMILES: CC(C)C[C@H](NC(=O)[C@H](Cc1ccc(O)cc1)NC(=O)[C@H](C)NC(=O)[C@H](CCCNC(=N)N)NC(=O)[C@H](Cc1c[nH]c2ccccc12)NC(=O)[C@@H]1CCCN1C(=O)[C@H](CC(N)=O)NC(=O)[C@H](CCC(N)=O)NC(=O)[C@H](CC(=O)O)NC(=O)[C@H](CC(=O)O)NC(=O)[C@H](CSC1CC(=O)N(CCNC(=O)CCCCCN2/C(=C/C=C/C=C/C=C/C3=[N+](CCCCS(=O)(=O)[O-])c4ccc5ccccc5c4C3(C)C)C(C)(C)c3c2ccc2ccccc32)C1=O)NC(=O)[C@H](C)N)C(=O)N[C@@H](CC(=O)O)C(=O)N[C@@H](CC(C)C)C(=O)N[C@@H](CC(C)C)C(=O)N[C@@H](Cc1ccccc1)C(=O)N1CCC[C@H]1C(=O)N[C@H](C(=O)N[C@@H](CC(=O)O)C(=O)N[C@H](C(=O)N[C@@H](CC(C)C)C(=O)N[C@@H](CC(C)C)C(=O)N[C@@H](CC(C)C)C(=O)N[C@@H](CC(=O)O)C(=O)N[C@@H](CC(C)C)C(=O)N[C@@H](CC(C)C)C(=O)N[C@@H](Cc1c[nH]c2ccccc12)C(=O)N[C@@H](C)C(=O)O)[C@@H](C)O)[C@@H](C)O (stereo partly drawn) [ICG-Var3] (H-AC(X1)DDQNPWRAYLDLLFPTDTLLLDLLWA-OH)
- fluorescent signal in blood samples [1]: persistence of strong fluorescent signal within 2 hours
- organ of clearance [2]: cleared by the liver
- adverse morphological findings in specimens after incubation [3]: did not show any adverse morphological findings
